The values that follow come from patent US20240218070A1 (MERUS N V, published 2024).

T1: cynomolgus FAP (cyFAP) expressed on 293FF cells (cynomolgus, UniProt Q12884 1-760 (human entry))
T1 sequence: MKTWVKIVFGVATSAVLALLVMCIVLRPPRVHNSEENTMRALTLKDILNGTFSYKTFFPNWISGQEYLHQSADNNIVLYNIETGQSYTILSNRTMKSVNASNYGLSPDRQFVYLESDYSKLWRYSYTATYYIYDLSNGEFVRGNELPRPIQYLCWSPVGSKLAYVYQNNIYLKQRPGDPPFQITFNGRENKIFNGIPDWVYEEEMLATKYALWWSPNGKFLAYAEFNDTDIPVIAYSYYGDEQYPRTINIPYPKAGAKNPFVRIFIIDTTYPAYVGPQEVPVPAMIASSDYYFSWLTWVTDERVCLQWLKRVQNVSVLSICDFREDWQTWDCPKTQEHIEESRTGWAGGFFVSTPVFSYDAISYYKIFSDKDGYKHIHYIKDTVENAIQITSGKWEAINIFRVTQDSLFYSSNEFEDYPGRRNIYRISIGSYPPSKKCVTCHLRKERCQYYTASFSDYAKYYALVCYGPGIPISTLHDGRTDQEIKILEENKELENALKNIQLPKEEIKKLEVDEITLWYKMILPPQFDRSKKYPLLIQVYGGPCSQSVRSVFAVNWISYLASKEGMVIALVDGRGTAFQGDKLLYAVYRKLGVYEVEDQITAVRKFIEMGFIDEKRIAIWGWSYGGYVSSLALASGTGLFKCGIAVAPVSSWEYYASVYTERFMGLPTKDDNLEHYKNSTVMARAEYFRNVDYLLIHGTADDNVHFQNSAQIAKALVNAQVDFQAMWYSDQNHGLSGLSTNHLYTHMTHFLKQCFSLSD

B1: anti-human FAP bivalent monospecific IgG comprising heavy chain variable region SEQ ID NO: 11 (antibody, V domains shown)
VH: EVQLVESGGGLVQPGGSLRLSCAASGFTFSSYAMIWVRQAPGKGLEWVSAISGSGGYTFNADSVKGRFTMSRDNSKNTLYLQMNSLRAEDTAVYYCAKRDGGYEGGAFDIWGQGTLVTVSS
VL: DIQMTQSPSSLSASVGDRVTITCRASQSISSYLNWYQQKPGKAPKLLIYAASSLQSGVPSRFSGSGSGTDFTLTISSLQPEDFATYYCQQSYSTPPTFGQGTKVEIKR
notes: IgG1 format, common light chain VK1-39/JK1
B2: anti-human FAP bivalent monospecific IgG comprising heavy chain variable region SEQ ID NO: 15 (antibody, V domains shown)
VH: QLQLQESGPGLVKPSETLSLTCTVSGGSISSSSYFWAWIRQPPGKGLEFIGNIYYSGSTYYNPSLKSRVTISVDTSKNQFSLKLSSVTAADTAVYYCARPSYYGSGNYYFAFWGQGTLVTVSS
VL: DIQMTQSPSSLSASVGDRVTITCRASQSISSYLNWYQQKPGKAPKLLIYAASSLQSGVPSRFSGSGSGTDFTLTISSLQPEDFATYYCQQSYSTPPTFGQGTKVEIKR
notes: as for B1
B3: anti-human FAP bivalent monospecific IgG comprising heavy chain variable region SEQ ID NO: 69 (antibody, V domains shown)
VH: EVQLVETGGGLIQPGGSLRLSCAASGFTVSSNYMSWVRQAPGKGLEWVSVIYSGGSTYYADSVKGRFTISRDNSKNTLYLQMNSLRAEDTAVYYCARGPTDAYPYLDYLWGQGTLVTVSS
VL: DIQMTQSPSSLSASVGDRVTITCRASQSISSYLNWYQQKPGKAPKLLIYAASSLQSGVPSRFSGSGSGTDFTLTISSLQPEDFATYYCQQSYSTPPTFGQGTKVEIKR
notes: IgG1 format, common light chain VK1-39/JK1; also called human/mouse cross-reactive FAP IgG
B4: anti-human FAP bivalent monospecific IgG comprising heavy chain variable region SEQ ID NO: 19 (antibody, V domains shown)
VH: EVQLVESGGGLVKPGGSLRLSCAASGFPFNYAWMSWVRQAPGKGLEWVGRIKPKTSGGATDYAAPVKDRFTISRDDSRNTLYLQMNSLKTEDTAVYYCSAREDIWNFFFDLWGQGTLVTVSS
VL: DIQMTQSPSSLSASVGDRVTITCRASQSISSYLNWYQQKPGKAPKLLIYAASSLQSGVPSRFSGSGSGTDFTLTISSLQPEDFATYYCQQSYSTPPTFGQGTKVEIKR
notes: as for B1

Chain of human CD26 (huCD26) expressed on 293FF cells (P27487 whole entry): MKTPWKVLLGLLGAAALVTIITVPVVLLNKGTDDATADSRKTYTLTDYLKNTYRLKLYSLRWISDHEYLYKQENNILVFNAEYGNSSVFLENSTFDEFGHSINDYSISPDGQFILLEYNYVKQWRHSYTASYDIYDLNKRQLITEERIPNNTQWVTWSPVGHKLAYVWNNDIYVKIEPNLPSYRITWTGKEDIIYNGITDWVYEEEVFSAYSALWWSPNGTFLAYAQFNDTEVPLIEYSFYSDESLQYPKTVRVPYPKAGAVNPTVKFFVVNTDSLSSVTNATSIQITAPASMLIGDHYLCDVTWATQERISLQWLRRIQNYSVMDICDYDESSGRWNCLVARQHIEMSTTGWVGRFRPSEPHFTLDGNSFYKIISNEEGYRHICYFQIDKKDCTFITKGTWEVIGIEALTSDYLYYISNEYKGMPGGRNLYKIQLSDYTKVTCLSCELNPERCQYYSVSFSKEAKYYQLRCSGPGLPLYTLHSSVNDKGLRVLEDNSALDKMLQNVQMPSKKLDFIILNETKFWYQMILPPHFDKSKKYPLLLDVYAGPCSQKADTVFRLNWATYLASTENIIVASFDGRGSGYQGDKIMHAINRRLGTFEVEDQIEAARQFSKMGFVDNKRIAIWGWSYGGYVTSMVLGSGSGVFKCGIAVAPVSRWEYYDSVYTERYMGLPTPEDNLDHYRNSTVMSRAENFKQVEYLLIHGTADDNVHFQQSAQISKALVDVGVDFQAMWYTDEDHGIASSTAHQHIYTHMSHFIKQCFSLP

The first test has as its target human CD26 (huCD26) expressed on 293FF cells (human, UniProt P27487 1-766). Kind of test: FACS, 293FF cells transiently transfected with huCD26. Here is the method: (§1) The binding of all test and control antibodies to the cells was tested at a single concentration of 2.5 ug/ml. Goat-anti-human IgG F(ab)2-PE (Invitrogen, H10104) was used as secondary antibody (1:100 in FACS buffer). Ab0625 was used at 10 ug/ml and its binding was detected using Ab0250 (Becton Dickinson, 550767) (1:100 in FACS buffer). The FACS buffer containing PBS (Gibco, cat. #10010-015), 0.5% BSA (Thermo Scientific, cat. #37525), and 2 mM EDTA (Invitrogen, cat. #15575-020) was kept ice cold throughout the assay.
(§2) The target cells were harvested, counted, and centrifuged for 5 min at 300 g at 4 °C. Cells were then resuspended in FACS buffer at a concentration of 1×10⁶ cells/ml and transferred (200,000 cells/well) to a U-bottom 96-well FACS plate (BD, cat. #353910). Cells were then centrifuged for 3 min at 300 g at 4° C. and supernatant was discarded. 50 μl of primary antibody solutions were added to the cells, mixed, and incubated for 30 min at 2-8° C. in the dark. Cells were washed by adding 150 μl FACS buffer and centrifuged for 3 min at 300 g at 4° C. Supernatant was discarded, and cells were washed again by adding 200 μl FACS buffer to the plate. Cells were then centrifuged for 3 min at 300 g at 4° C. and afterwards the supernatant was discarded. 50 μl of secondary antibody solutions were added to the cells, mixed, and incubated for 30 min at 2-8° C. in the dark. Cells were then washed by adding 150 μl FACS buffer to the plate and centrifuged for 3 min at 300 g at 4° ° C. Supernatant was discarded and cells were washed again by adding 200 μl FACS buffer to the plate and centrifuged for 3 min at 300 g at 4° C. Supernatant was discarded and cells were fixated by adding 100 μl/well ice-cold Fixation buffer (2% formaldehyde solution in PBS, Sigma-Aldrich, cat. #47608-250ML-F). Cells were incubated for 15 min on ice in the dark. Afterwards, 100 μl ice-cold PBS was added to the cells and cells were centrifuged for 3 at 300 g at 4° C. Supernatant was discarded and cells were resuspended in 120 μl FACS buffer.
For orientation: A flow cytometer gives signals particle by particle.
Take B1: the binding result is listed as “no binding (tested: 2.5 ug/ml)”.
With B2, the binding result was “no binding (tested: 2.5 ug/ml)”.
Same read-out and setting: the same measure for B3: “no binding (tested: 2.5 ug/ml)”; for B4: “no binding (tested: 2.5 ug/ml)”.

The target of the next test is T1, cynomolgus FAP (cyFAP) expressed on …. Kind of test: FACS, 293FF cells stably expressing cyFAP, IgG at 2.5 ug/ml. Here is the method: as §1, §2
With B1, the binding result is recorded as “binds”.
Still for that read-out and setting: the same measure for B2: “binds”.
On to B3, for which the binding result is “binds”.
B4: the binding result was “binds”.
